This note sets out measurements from publication PMC12719470.

For the experiment, the target named is Nanobody-161 IgG1 Y105G. As to the kind of experiment: BLI; 30 nM Nanobody-161 IgG1 or mutant immobilised on Protein A biosensors (Gator); 4800 nM-300 nM TNFR2-His in Q Buffer (PBS, 0.02% Tween 20, 0.2% BSA); 25 °C; association 120 s, dissociation 180 s; global 1:1 Langmuir fit.
Nanobody-161 IgG1 Y105G, sequence (heavy, as listed by the source): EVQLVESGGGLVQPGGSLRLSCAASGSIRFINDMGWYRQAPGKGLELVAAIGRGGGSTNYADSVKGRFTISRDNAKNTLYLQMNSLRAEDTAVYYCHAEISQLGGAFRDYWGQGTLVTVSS

TNFR2-His protein, sequence (P20333 23-461): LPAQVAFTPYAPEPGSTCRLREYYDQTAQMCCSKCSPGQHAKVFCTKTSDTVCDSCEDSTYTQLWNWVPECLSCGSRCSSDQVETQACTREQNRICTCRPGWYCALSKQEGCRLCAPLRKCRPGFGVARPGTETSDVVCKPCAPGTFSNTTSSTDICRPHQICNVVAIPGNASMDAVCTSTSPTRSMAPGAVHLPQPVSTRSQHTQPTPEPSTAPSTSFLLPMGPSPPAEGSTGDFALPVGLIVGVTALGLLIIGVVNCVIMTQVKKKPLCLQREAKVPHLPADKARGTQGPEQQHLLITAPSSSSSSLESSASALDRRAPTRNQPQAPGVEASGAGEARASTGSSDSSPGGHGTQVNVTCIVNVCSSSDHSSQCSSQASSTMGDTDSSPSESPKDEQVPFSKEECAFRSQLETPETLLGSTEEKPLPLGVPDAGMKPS

In turn, “TNFR2-His protein (from UniProt P20333 23-461) (receptor)” returned an equilibrium dissociation constant (Kd) of 214 µM, a koff of 0.0917 s⁻¹ and a kon of 429 M⁻¹ s⁻¹.

As a reminder, the Kd is the equilibrium constant for the complex coming apart. A word on the koff: it is a measure of how fast the partners let go of each other. Lower therefore signals slow dissociation. One may read the kon as the second-order rate constant of association. A high value points to faster complex formation.
